Laboratory results as given in paper PMC8948829, “The Escherichia coli Amino Acid Uptake Protein CycA: Regulation of Its Synthesis and Practical Application in L-Isoleucine Production” (Microorganisms, 2022).

Biological target: T1, Crp (CRP, cAMP receptor protein) (Escherichia coli (purified from strain SA500/pHA5)) (UniProt P0ACJ8)
T1 sequence: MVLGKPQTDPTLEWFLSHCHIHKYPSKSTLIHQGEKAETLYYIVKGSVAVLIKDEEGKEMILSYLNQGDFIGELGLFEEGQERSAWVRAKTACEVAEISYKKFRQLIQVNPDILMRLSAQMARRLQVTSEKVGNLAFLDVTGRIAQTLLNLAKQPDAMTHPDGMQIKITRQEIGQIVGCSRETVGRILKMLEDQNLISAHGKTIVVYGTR
Test: EMSA
Conditions: 10 mM Tris-HCl pH 7.5, 1 mM EDTA, 100 mM KCl, 1 mM DTT, BSA (printed 10 g/mL), 5% glycerol, 20 uM cAMP, room temperature 30 min; 6% native PAGE, 1x TAE, 4 C

Row | Sequence | binding
1 | CGTTCAGCACCCTGGTGTTTGAAGTCGAACTGCTGGAAATCCTCTAAGCAGCGCATTCTGTTCCCCTCGAACGAGAGGGGAGCAGGCATTCAGCAATAAACCCTTCAGTTTGCCAAACGGCGCTATTTTGTGTTGCAAAGACCCCGTA (double strand) [PcycA fragment 3 (148 bp, no predicted Crp site)] | no binding
2 | TGTTTAAAGTGAGTGTCATATCACGGTGATAACGCGAAACAGCTCACAAAAATACACGCTTACGGGGTCTTTGCAACACAAAATAGCGCCGTTTGGCAAACTGAAGGGTTTATTGCTGAATGCCTGCTCCCCTCTCGTTCGAGGGGAACAGAATGCGCTGCTTAGAGGATTTCCAGCAGTTCGACTTCAAACACCAGGGTGCTGAACG (double strand) [PcycA fragment 1 (208 bp)] | binds
